What was measured:
Assay in all cases: binding screen of Example 5; the reference itself
C3a (human) = C3a (human) (UniProt P01024)
C3b (human) = C3b (human) (UniProt P01024)
C3c = C3c (UniProt P01024)
C3d = C3d (UniProt P01024)
Factor Bb = Factor Bb (UniProt P00751)
[1] = target: human complement component C3 (human) (UniProt P01024)
iC3b = iC3b (UniProt P01024)

Sequence of C3d (P01024 1002-1303 limits assumed): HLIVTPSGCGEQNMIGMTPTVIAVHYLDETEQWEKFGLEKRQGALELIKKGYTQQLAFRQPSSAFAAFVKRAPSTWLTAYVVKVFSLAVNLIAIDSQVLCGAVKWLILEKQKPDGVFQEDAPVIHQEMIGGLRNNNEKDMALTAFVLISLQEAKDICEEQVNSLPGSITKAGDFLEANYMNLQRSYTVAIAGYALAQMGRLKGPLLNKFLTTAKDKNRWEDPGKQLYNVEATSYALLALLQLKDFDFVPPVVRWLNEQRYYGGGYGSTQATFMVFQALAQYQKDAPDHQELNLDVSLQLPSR
Sequence of Factor Bb (P00751 260-764 limits assumed): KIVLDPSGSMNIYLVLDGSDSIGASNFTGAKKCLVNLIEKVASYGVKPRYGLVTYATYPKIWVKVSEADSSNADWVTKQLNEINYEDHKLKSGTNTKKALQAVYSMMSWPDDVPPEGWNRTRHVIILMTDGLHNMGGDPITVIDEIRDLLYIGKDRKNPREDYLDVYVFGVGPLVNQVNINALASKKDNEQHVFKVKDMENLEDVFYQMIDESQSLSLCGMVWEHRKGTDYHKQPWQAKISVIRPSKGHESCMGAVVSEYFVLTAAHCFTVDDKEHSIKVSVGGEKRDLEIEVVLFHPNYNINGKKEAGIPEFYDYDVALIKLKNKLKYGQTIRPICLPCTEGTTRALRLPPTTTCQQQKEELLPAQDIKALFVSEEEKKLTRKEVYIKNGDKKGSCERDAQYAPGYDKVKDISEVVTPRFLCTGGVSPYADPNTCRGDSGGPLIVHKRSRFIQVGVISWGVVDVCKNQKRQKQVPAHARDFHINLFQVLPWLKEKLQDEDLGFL
Sequence of C3a (human) (P01024 672-748 limits assumed): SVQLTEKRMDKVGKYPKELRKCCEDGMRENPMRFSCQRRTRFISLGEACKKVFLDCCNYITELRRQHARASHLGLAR
Sequence of human complement component C3 (human) (P01024 23-667, chain 1 of 2): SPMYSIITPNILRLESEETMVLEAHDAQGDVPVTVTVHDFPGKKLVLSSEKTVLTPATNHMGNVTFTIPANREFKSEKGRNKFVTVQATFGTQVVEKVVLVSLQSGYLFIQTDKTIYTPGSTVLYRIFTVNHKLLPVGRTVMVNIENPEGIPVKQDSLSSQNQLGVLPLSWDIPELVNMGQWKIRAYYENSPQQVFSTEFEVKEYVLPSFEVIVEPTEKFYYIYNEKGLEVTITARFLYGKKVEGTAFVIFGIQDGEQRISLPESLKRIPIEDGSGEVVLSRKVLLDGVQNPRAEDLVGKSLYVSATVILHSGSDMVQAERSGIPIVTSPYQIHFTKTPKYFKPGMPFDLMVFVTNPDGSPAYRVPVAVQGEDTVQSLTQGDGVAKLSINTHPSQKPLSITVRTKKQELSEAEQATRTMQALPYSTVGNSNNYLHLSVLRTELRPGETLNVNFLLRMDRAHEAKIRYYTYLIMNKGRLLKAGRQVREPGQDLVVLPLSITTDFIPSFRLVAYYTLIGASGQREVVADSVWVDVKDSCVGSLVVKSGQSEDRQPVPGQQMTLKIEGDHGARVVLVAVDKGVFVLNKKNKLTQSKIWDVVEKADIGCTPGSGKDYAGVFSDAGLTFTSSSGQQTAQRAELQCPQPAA
Sequence of human complement component C3 (human) (P01024 672-1663, chain 2 of 2): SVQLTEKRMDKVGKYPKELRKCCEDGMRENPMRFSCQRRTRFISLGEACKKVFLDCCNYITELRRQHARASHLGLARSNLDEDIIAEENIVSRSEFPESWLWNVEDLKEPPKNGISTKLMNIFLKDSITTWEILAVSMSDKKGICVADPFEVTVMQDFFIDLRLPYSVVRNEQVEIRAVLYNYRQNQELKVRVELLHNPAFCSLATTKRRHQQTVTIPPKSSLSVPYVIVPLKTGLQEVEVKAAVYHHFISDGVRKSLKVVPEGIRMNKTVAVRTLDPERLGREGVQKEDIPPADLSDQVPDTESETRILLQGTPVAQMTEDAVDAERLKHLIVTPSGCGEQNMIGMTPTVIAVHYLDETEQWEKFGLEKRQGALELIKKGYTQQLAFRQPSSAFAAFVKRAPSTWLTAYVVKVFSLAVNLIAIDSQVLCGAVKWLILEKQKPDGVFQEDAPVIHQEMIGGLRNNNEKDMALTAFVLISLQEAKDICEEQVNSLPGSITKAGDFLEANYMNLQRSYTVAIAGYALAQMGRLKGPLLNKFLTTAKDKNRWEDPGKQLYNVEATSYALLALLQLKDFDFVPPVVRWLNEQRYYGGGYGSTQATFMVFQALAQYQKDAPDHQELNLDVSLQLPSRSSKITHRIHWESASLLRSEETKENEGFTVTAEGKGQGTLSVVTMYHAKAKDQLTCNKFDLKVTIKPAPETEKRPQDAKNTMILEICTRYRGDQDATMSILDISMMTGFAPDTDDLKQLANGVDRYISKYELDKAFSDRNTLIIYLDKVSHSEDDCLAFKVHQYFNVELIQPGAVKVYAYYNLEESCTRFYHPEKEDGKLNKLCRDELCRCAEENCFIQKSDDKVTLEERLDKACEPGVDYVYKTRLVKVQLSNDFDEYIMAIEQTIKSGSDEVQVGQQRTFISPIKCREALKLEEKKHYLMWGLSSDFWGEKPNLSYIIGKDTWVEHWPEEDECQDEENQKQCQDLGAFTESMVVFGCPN
Sequence of C3b (human) (P01024 23-667 limits assumed, chain 1 of 2): as the sequence (P01024 23-667, chain 1 of 2) above
Sequence of C3b (human) (P01024 749-1663 limits assumed, chain 2 of 2): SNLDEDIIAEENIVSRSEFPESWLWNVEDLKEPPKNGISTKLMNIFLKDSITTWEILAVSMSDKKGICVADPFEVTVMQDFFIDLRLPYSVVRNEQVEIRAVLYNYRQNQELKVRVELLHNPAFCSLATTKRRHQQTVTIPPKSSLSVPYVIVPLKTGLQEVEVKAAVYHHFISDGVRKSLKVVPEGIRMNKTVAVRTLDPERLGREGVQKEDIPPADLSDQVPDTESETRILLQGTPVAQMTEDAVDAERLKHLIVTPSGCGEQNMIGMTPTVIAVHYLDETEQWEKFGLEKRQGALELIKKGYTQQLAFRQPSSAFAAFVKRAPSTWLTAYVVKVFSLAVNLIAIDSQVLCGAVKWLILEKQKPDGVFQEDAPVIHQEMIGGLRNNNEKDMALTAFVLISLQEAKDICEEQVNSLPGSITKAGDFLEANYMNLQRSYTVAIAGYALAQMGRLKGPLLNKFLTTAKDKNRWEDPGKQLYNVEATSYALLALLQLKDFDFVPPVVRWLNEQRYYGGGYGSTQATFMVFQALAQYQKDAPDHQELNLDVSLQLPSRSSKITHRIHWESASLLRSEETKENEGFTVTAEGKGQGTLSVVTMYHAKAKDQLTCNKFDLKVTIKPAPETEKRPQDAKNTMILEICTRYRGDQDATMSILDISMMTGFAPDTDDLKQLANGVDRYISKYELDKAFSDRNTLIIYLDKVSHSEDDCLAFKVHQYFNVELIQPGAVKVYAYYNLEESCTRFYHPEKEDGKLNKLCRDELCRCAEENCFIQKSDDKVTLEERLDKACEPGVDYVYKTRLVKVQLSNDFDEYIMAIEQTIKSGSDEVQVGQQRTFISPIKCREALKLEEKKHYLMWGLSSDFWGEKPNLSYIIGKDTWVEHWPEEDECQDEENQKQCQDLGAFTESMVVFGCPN

binding relative to negative control mIgG2 (C3a (human)): 0 | binding relative to negative control mIgG2 (C3b (human)): 0 | binding relative to negative control mIgG2 (C3c): 0 | binding relative to negative control mIgG2 (C3d): 0 | binding relative to negative control mIgG2 (Factor Bb): 0 | binding relative to negative control mIgG2 [1]: 0 | binding relative to negative control mIgG2 (iC3b): 0
Substance: negative control mIgG2 antibody

— US20190322730A1
